{"source": "patent US20260250361A1", "about": "(HUAHUI HEALTH, published 2026)", "binders": {"B1": {"name": "afuco-A14 GA LS (antibody, human IgG1, lambda)", "heavy": "QVQLQQSGPGLVKPSQTLSLTCAISGDSVSSNSAAWNWIRQSPSRGLEWLGRTYYRSKWYNDYAVSVKSRITINPDTSKNQFSLQLNSVTPEDTAVYYCARGTRWGMDVWGQGTLVTVSSASTKGPSVFPLAPSSKSTSGGTAALGCLVKDYFPEPVTVSWNSGALTSGVHTFPAVLQSSGLYSLSSVVTVPSSSLGTQTYICNVNHKPSNTKVDKKVEPKSCDKTHTCPPCPAPELLAGPSVFLFPPKPKDTLMISRTPEVTCVVVDVSHEDPEVKFNWYVDGVEVHNAKTKPREEQYNSTYRVVSVLTVLHQDWLNGKEYKCKVSNKALPAPIEKTISKAKGQPREPQVYTLPPSRDELTKNQVSLTCLVKGFYPSDIAVEWESNGQPENNYKTTPPVLDSDGSFFLYSKLTVDKSRWQQGNVFSCSVLHEALHSHYTQKSLSLSPGK", "light": "not shown", "modifications": "Afucosylated modification (expressed in Fut8-knockout FCC# cells)", "notes": "IgG1"}}, "key": {"[1]": {"target": "Pre-S1 domain of the L protein on recombinant HBV D genotype virus (hepatitis B virus, D genotype)", "experiment": "cell-based or functional assay"}, "[2]": {"target": "FcγRIIIa F158 on Jurkat/NFAT-luc2p/FcγRIIIa F158 cells (UniProt P08637 17-254, limits assumed)", "experiment": "cell-based or functional assay"}, "[3]": {"target": "T1, FcγRIIa R131 on Jurkat/NFAT-luc2p/FcγRIIa R131 cells (UniProt P12318 34-317)", "T1 sequence (looked up)": "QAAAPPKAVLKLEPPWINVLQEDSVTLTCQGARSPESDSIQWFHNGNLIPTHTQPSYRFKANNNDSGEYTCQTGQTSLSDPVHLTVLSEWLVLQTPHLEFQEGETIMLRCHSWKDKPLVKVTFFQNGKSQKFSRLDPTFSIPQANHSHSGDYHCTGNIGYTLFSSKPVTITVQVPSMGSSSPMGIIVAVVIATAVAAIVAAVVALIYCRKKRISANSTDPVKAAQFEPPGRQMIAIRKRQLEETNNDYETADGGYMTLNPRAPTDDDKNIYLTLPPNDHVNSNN", "experiment": "cell-based or functional assay"}, "human FcRn [4]": {"target": "T2, human FcRn (human, UniProt P55899 24-297; P61769 21-119)", "T2 construct": "beta-2-microglobulin is not mentioned; also called hFcRn; recombinantly expressed hFcRn", "T2 sequence (P55899 24-297 limits assumed, chain 1 of 2)": "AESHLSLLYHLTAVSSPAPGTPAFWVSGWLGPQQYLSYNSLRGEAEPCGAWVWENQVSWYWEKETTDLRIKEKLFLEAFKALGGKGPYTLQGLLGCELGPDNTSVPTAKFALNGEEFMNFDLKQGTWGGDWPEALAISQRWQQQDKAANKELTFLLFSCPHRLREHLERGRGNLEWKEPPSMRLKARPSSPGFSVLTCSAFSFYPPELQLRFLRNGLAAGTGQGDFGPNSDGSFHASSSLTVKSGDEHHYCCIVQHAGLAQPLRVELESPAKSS", "T2 sequence (P61769 21-119 limits assumed, chain 2 of 2)": "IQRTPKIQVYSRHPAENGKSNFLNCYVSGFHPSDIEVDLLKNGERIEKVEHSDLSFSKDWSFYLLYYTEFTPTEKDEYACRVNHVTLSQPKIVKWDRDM", "experiment": "Biacore; hFcRn amine-coupled on CM5 chip, antibody in mobile phase, pH 6.0, 1:1 Langmuir fit", "method": "(§1) The affinity was then calculated by fitting the data using a 1:1 Langmuir binding model."}, "human FcRn [5]": {"target": "T2, human FcRn", "experiment": "Biacore (SPR): hFcRn amine-coupled on a CM5 chip, antibody as mobile phase, pH 6.0, 1:1 Langmuir fit", "method": "as §1"}, "hFcγRIa [6]": {"target": "T3, hFcγRIa (human, UniProt P12314 16-288, limits assumed)", "T3 construct": "Recombinant, Ni column purified; also called hFcγR1a; human FcγRI", "T3 sequence (P12314 other isoform, or with tags, fused parts or gaps limits assumed)": "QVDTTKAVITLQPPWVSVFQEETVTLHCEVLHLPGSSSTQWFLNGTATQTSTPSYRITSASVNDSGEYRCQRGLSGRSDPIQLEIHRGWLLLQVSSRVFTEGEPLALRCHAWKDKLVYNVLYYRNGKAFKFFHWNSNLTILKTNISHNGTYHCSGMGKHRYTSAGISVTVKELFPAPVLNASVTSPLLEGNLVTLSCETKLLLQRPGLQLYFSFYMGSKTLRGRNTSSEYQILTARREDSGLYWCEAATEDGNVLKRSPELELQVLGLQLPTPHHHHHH", "experiment": "Biacore; ratio against A14 WT", "method": "(§2) Different concentrations of recombinant hFcγR were used as the mobile phase over the flow path to allow binding and dissociation with the antibodies on the chip at pH 7.0. The affinity was then calculated by fitting the data using a 1:1 Langmuir binding model."}, "hFcγRIIb [7]": {"target": "T4, hFcγRIIb (human, UniProt P31994 43-217)", "T4 construct": "also called hFcγR2b", "T4 sequence": "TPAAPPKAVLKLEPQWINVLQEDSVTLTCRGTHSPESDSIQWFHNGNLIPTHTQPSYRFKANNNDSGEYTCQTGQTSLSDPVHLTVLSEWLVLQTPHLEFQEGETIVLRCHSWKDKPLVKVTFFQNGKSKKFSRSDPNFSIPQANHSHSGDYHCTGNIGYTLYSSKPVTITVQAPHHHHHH", "experiment": "Biacore; ratio against A14 WT", "method": "as §2"}, "hFcγRIIIa (V158) [8]": {"target": "T5, hFcγRIIIa (V158) (human, UniProt P08637 17-208)", "T5 construct": "V at position 158; also called hFcγR3a V158", "T5 sequence (P08637 other isoform, or with tags, fused parts or gaps)": "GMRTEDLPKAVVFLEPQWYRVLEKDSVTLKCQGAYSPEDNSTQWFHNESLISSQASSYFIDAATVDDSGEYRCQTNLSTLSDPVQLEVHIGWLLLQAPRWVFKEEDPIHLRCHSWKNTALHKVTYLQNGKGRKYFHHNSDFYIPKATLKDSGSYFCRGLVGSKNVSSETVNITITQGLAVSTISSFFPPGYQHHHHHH", "experiment": "Biacore; ratio against A14 WT", "method": "as §2"}, "hFcγRIIa (R131) [9]": {"target": "T6, hFcγRIIa (R131) (human, UniProt P12318 34-217)", "T6 construct": "also called hFcγR2a R131", "T6 sequence": "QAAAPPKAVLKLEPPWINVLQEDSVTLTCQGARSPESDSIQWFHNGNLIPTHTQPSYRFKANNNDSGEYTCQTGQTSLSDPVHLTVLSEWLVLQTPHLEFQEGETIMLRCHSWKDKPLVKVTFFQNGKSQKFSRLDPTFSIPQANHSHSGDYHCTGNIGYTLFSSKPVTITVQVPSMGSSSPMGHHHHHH", "experiment": "Biacore; ratio against A14 WT", "method": "as §2"}, "hFcγRIIa (H131) [10]": {"target": "T7, hFcγRIIa (H131) (human, UniProt P12318 34-217)", "T7 construct": "also called hFcγR2a H131", "T7 sequence": "T6 sequence with R134H", "experiment": "Biacore; ratio against A14 WT", "method": "as §2"}, "hFcγRIIIa (F158) [11]": {"target": "T8, hFcγRIIIa (F158) (human, UniProt P08637 17-208)", "T8 construct": "F at position 158; also called hFcγR3a F158", "T8 sequence (P08637 other isoform, or with tags, fused parts or gaps)": "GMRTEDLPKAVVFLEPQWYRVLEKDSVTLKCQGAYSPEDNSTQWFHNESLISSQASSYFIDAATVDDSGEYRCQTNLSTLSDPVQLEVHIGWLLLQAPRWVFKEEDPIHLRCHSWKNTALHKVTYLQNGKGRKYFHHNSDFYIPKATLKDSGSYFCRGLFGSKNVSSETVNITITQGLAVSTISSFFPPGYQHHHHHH", "experiment": "Biacore; ratio against A14 WT", "method": "as §2"}, "[12]": {"target": "T9, antigen peptide NC36b (pre-S1)", "T9 construct": "Synthesised by Beijing Zhongke Yaguang Biotechnology; also called target antigen Pre-S1", "experiment": "ELISA on the antigen peptide NC36b (Pre-S1), panel title 'Binding to PreS1'"}, "hFcγRIa [13]": {"target": "T3, hFcγRIa", "experiment": "Biacore; antibody captured on Protein G CM5 chip, hFcγR in mobile phase, pH 7.0, 1:1 Langmuir fit", "method": "as §2"}, "hFcγRIIb [14]": {"target": "T4, hFcγRIIb", "experiment": "Biacore; antibody captured on Protein G CM5 chip, hFcγR in mobile phase, pH 7.0, 1:1 Langmuir fit", "method": "as §2"}, "hFcγRIIIa (V158) [15]": {"target": "T5, hFcγRIIIa (V158)", "experiment": "Biacore; antibody captured on Protein G CM5 chip, hFcγR in mobile phase, pH 7.0, 1:1 Langmuir fit", "method": "as §2"}, "hFcγRIIa (R131) [16]": {"target": "T6, hFcγRIIa (R131)", "experiment": "Biacore; antibody captured on Protein G CM5 chip, hFcγR in mobile phase, pH 7.0, 1:1 Langmuir fit", "method": "as §2"}, "hFcγRIIa (H131) [17]": {"target": "T7, hFcγRIIa (H131)", "experiment": "Biacore; antibody captured on Protein G CM5 chip, hFcγR in mobile phase, pH 7.0, 1:1 Langmuir fit", "method": "as §2"}, "hFcγRIIIa (F158) [18]": {"target": "T8, hFcγRIIIa (F158)", "experiment": "Biacore; antibody captured on Protein G CM5 chip, hFcγR in mobile phase, pH 7.0, 1:1 Langmuir fit", "method": "as §2"}}, "note": "Numbering of substitutions follows the chain as printed."}
{"binder": "B1", "values": [{"measurement": "IC50 of inhibition of HBV infection of HepG2-hNTCP cells (HBeAg secretion)", "setting": "[1]", "result": "~0.011", "unit": "µg/mL"}, {"measurement": "ADCC activity, fold enhancement compared to A14 (Jurkat/NFAT-luc2p/FcγRIIIa F158 reporter)", "setting": "[2]", "result": 18.6, "unit": "fold"}, {"measurement": "ADCP activity, fold enhancement compared to A14 (Jurkat/NFAT-luc2p/FcγRIIa R131 reporter)", "setting": "[3]", "result": "≥ 4.7", "unit": "fold"}, {"measurement": "fold change in KD against A14 WT", "setting": "human FcRn [4]", "result": 3.4, "unit": "fold"}, {"measurement": "Kd", "setting": "human FcRn [5]", "result": 6.46, "unit": "nM"}, {"measurement": "Fold (KD of A14 WT over KD of afuco-A14 GA LS)", "setting": "hFcγRIa [6]", "result": 0.41, "unit": "fold"}, {"measurement": "Fold (KD of A14 WT over KD of afuco-A14 GA LS)", "setting": "hFcγRIIb [7]", "result": 0.76, "unit": "fold"}, {"measurement": "Fold (KD of A14 WT over KD of afuco-A14 GA LS)", "setting": "hFcγRIIIa (V158) [8]", "result": 7.89, "unit": "fold"}, {"measurement": "Fold (KD of A14 WT over KD of afuco-A14 GA LS)", "setting": "hFcγRIIa (R131) [9]", "result": 3.83, "unit": "fold"}, {"measurement": "Fold (KD of A14 WT over KD of afuco-A14 GA LS)", "setting": "hFcγRIIa (H131) [10]", "result": 4.63, "unit": "fold"}, {"measurement": "Fold (KD of A14 WT over KD of afuco-A14 GA LS)", "setting": "hFcγRIIIa (F158) [11]", "result": 11, "unit": "fold"}, {"measurement": "EC50 (read off the curve)", "setting": "[12]", "result": "~0.02", "unit": "µg/mL"}, {"measurement": "Kd", "setting": "hFcγRIa [13]", "result": 173, "unit": "nM"}, {"measurement": "Kd", "setting": "hFcγRIIb [14]", "result": 7470, "unit": "nM"}, {"measurement": "Kd", "setting": "hFcγRIIIa (V158) [15]", "result": 123, "unit": "nM"}, {"measurement": "Kd", "setting": "hFcγRIIa (R131) [16]", "result": 204, "unit": "nM"}, {"measurement": "Kd", "setting": "hFcγRIIa (H131) [17]", "result": 169, "unit": "nM"}, {"measurement": "Kd", "setting": "hFcγRIIIa (F158) [18]", "result": 588, "unit": "nM"}]}
